Reference: article PMC3544974 (Structure (London, England : 1993), 2012)

Key:
[1] = target: HBeAg used for crystallization: Cp(-10)149, C48A, C107A, G123A (Hepatitis B virus) (UniProt P03147); assay: crystal structure
AUC = target: the molecule itself; assay: AUC

**Q.** “HBeAg used for crystallization: Cp(-10)149, C48A, C107A, G123A (from UniProt P03147 1-149) (natural protein)” was tested. Which stoichiometry N [1] did it give?
**A.** The stoichiometry N was 2.

B1: HBeAg construct Cp(-10)149, C48A, C107A (natural protein)
chain: SKLCLGWLWGMDIDPYKEFGATVELLSFLPSDFFPSVRDLLDTAAALYRDALESPEHASPHHTALRQAILCWGDLMTLATWVGTNLEDPASRDLVVSYVNTNVGLKFRQLLWFHISALTFGRETVLEYLVSFGVWIRTPPAYRPPNAPILSTLPETTVV
**Q.** Which “stoichiometry N” value (AUC) does the source give for B1 here?
**A.** Its value is 2.
